Measured values: the supplement of paper PMC7877785
± gives the uncertainty stated by the source.

Test: self-splicing fitness, log relative to wild type (ln ratio); higher = more splicing; Tetrahymena group I intron in knt gene, E. coli kanamycin selection, DiMSum; sequences stand for … in CUCUCU…GGAGGGAAAAGUUAUCAGGCAUGCACCUGGUAGCUAGUCUUUAAACCAAUAGAUUGCAUCGGUUUAAAAGGCAAGACCGUCAAAUUGCGGGAAAGGGGUCAACAGCCGUUCAGUACCAAGUCUCAGGGGAAACUUUGAGAUGGCCUUGCAAAGGGUAUGGUAAUAAGCUGACGGACAUGGUCCUAACCACGCAGCCAAGUCCUAAGUCAACAGAUCUUCUGUUGAUAUGGAUGCAGUUCACAGACUAAAUGUCGGUCGGGGAAGAUGUAUUCUUCUCAUAAGAUAUAGUCGGACCUCUCCUUAAUGGGAGCUAGCGGAUGAAGUGAUGCAACACUGGAGCCGCUGGGAACUAAUUUGUAUGCGAAAGUAUAUUGAUUAGUUUUGGAGUACUCGUGGUCG
Procedure, shortened: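 A randomised library covering all eight P1ex-region intron nucleotides was built with the intron in the knt kanamycin-resistance gene on pET-22b(+) and held in E. coli BL21(DE3). Cells were grown overnight at 37°C or 30°C on LB agar, with or without 25 μg/mL kanamycin, plus 100 μg/mL carbenicillin, 50 μM IPTG and 0.2% rhamnose, and pooled colonies were amplicon-sequenced on an Illumina HiSeq 2500. DiMSum fitness is the error-weighted combination of wild-type-normalised replicate fold changes, kanamycin versus none.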

Sequence | self-splicing fitness (ln) (30 °C) | self-splicing fitness (ln) (37 °C)
UCUCAGCAAUAUUACGCACA | -1.72 ± 0.19 | -0.264 ± 0.15
UCUCAGCAAUAUUACGCAUU | -0.39 ± 0.11 | -1.55 ± 0.15
UCUCAGCAAUAUUACGCCGA | – | -0.855 ± 0.18
UCUCAGCAAUAUUACGCCGU | -2.55 ± 0.25 | -1.56 ± 0.22
UCUCAGCAAUAUUACGCCUA | -2.3 ± 0.19 | -1.22 ± 0.2
UCUCAGCAAUAUUACGCGAG | -3.73 ± 0.37 | -0.582 ± 0.15
UCUCAGCAAUAUUACGCGCA | -0.638 ± 0.16 | -0.617 ± 0.18
UCUCAGCAAUAUUACGCUAC | -3.11 ± 0.35 | -2.14 ± 0.41
UCUCAGCAAUAUUACGCUGA | -2.7 ± 0.25 | -3.19 ± 0.4
UCUCAGCAAUAUUACGCUUA | -2.42 ± 0.31 | -2.93 ± 0.24
UCUCAGCAAUAUUACGGAGC | -2.1 ± 0.47 | -2.27 ± 0.47
UCUCAGCAAUAUUACGGCAC | -2.33 ± 0.24 | -1.79 ± 0.38
UCUCAGCAAUAUUACGGGCU | -1.77 ± 0.18 | -2.43 ± 0.44
UCUCAGCAAUAUUACGGGGU | -4.46 ± 0.37 | -2.8 ± 0.25
UCUCAGCAAUAUUACGGGUC | -4.37 ± 0.34 | -1.52 ± 0.16
UCUCAGCAAUAUUACGGUCG | -1.96 ± 0.15 | -0.825 ± 0.14
UCUCAGCAAUAUUACGGUGU | -2.03 ± 0.086 | -1 ± 0.097
UCUCAGCAAUAUUACGGUUG | -3.46 ± 0.17 | -2.41 ± 0.21
UCUCAGCAAUAUUACGUACC | -3.25 ± 0.46 | -1.69 ± 0.25
UCUCAGCAAUAUUACGUGCG | -3 ± 0.22 | -1.44 ± 0.18
UCUCAGCAAUAUUACGUGGG | -3.43 ± 0.25 | -2.48 ± 0.21
UCUCAGCAAUAUUACGUGUA | -1.47 ± 0.089 | -0.902 ± 0.08
UCUGAGCAAUAUUACGACUG | -3.15 ± 0.27 | -2.26 ± 0.28
UCUGAGCAAUAUUACGAGGC | -2.78 ± 0.35 | -2.39 ± 0.26
UCUGAGCAAUAUUACGAUCA | -3.84 ± 0.4 | -2.38 ± 0.36
UCUGAGCAAUAUUACGAUGA | -0.887 ± 0.12 | 0.0454 ± 0.18

Sequence | self-splicing fitness (ln) (30 °C) | self-splicing fitness (ln) (37 °C)
UCUGAGCAAUAUUACGCAGG | -2.76 ± 0.32 | -1.29 ± 0.21
UCUGAGCAAUAUUACGCGAU | -3.14 ± 0.27 | -3.02 ± 0.25
UCUGAGCAAUAUUACGCUCA | -2.29 ± 0.24 | -2.09 ± 0.28
UCUGAGCAAUAUUACGCUUU | -3.64 ± 0.23 | -3.19 ± 0.19
UCUGAGCAAUAUUACGGAUA | -3.08 ± 0.47 | -1.57 ± 0.25
UCUGAGCAAUAUUACGGCAA | -2.44 ± 0.4 | -1.8 ± 0.35
UCUGAGCAAUAUUACGGCCU | -3.3 ± 0.29 | -1.6 ± 0.3
UCUGAGCAAUAUUACGGGAA | – | -1.82 ± 0.33
UCUGAGCAAUAUUACGUACU | -2.66 ± 0.34 | -2.72 ± 0.48
UCUGAGCAAUAUUACGUCUU | -2.36 ± 0.21 | -2.9 ± 0.24
UCUUAGCAAUAUUACGAUAC | – | -3.06 ± 0.34
UCUUAGCAAUAUUACGAUUA | -2.37 ± 0.24 | -1.34 ± 0.2
UCUUAGCAAUAUUACGCCAU | -2.69 ± 0.3 | -2.26 ± 0.42
UCUUAGCAAUAUUACGCCCA | – | -0.128 ± 0.47
UCUUAGCAAUAUUACGCCUG | -2.25 ± 0.24 | -1.51 ± 0.27
UCUUAGCAAUAUUACGCGUG | -3.05 ± 0.18 | -2.21 ± 0.15
UCUUAGCAAUAUUACGCUCG | -0.481 ± 0.25 | -1.43 ± 0.44
UCUUAGCAAUAUUACGCUGG | -2.64 ± 0.24 | -1.64 ± 0.23
UCUUAGCAAUAUUACGGACG | -2.42 ± 0.3 | –
UCUUAGCAAUAUUACGGACU | -2.76 ± 0.34 | -0.0771 ± 0.26
UCUUAGCAAUAUUACGGCGU | -0.535 ± 0.15 | -1.19 ± 0.2
UCUUAGCAAUAUUACGGGCG | -1.5 ± 0.14 | -0.448 ± 0.17
UCUUAGCAAUAUUACGGGUU | -2.2 ± 0.15 | -1.61 ± 0.18
UCUUAGCAAUAUUACGUCUA | -3.59 ± 0.31 | -2.19 ± 0.2
UCUUAGCAAUAUUACGUGCA | -1.95 ± 0.12 | -1.07 ± 0.095
UCUUAGCAAUAUUACGUUGG | -2.76 ± 0.18 | -2.65 ± 0.19

Sequence | self-splicing fitness (ln) (30 °C) | self-splicing fitness (ln) (37 °C)
UCUUAGCAAUAUUACGUUUC | -3.68 ± 0.24 | -2.8 ± 0.29
UGAAAGCAAUAUUACGAAGU | -3.76 ± 0.21 | -2.96 ± 0.23
UGAAAGCAAUAUUACGAAUA | -0.955 ± 0.098 | -0.396 ± 0.12
UGAAAGCAAUAUUACGACCA | -0.558 ± 0.11 | 0.362 ± 0.14
UGAAAGCAAUAUUACGACGU | -1.06 ± 0.065 | -0.131 ± 0.084
UGAAAGCAAUAUUACGAUGC | – | -2.83 ± 0.41
UGAAAGCAAUAUUACGCAAA | -2.12 ± 0.11 | -0.812 ± 0.11
UGAAAGCAAUAUUACGCAGC | – | -1.62 ± 0.22
UGAAAGCAAUAUUACGCAUA | -1.31 ± 0.098 | -0.274 ± 0.11
UGAAAGCAAUAUUACGCCCC | -1.35 ± 0.43 | 0.00457 ± 0.49
UGAAAGCAAUAUUACGCUAC | -3.01 ± 0.28 | -1.75 ± 0.33
UGAAAGCAAUAUUACGCUAU | -3.32 ± 0.23 | -1.54 ± 0.17
UGAAAGCAAUAUUACGCUCA | -1 ± 0.19 | -0.0203 ± 0.25
UGAAAGCAAUAUUACGCUGU | -3.67 ± 0.19 | -1.73 ± 0.17
UGAAAGCAAUAUUACGCUUG | -1.8 ± 0.11 | -1.32 ± 0.13
UGAAAGCAAUAUUACGGACC | -0.608 ± 0.13 | -0.126 ± 0.16
UGAAAGCAAUAUUACGGAUG | -1.05 ± 0.09 | -0.581 ± 0.11
UGAAAGCAAUAUUACGGCCC | -0.866 ± 0.26 | 0.448 ± 0.4
UGAAAGCAAUAUUACGGGAC | -3.12 ± 0.24 | -2.31 ± 0.21
UGAAAGCAAUAUUACGGUGA | -1.27 ± 0.11 | -1.04 ± 0.14
UGAAAGCAAUAUUACGGUGU | -3.55 ± 0.18 | -2.02 ± 0.22
UGAAAGCAAUAUUACGUCGC | -3.49 ± 0.23 | -2.98 ± 0.32
UGAAAGCAAUAUUACGUGAA | -1.3 ± 0.07 | -1.5 ± 0.085
UGAAAGCAAUAUUACGUUGC | -3.54 ± 0.19 | -2.58 ± 0.21
UGAAAGCAAUAUUACGUUGU | -4.1 ± 0.22 | -2.04 ± 0.12
UGACAGCAAUAUUACGACCG | 0.701 ± 0.16 | 0.698 ± 0.19
